From FireProtDB (doi:10.1006/jmbi.1995.0323)

B1: Subtilisin inhibitor, P01006 (parent)
chain: MRNTGAGPSPSVSRPPPSAAPLSGAALAAPGDAPSALYAPSALVLTVGKGVSATTAAPERAVTLTCAPGPSGTHPAAGSACADLAAVGGDLNALTRGEDVMCPMVYDPVLLTVDGVWQGKRVSYERVFSNECEMNAHGSSVFAF

Variants of: B1
Conditions: Streptomyces albogriseolus, Thermal, DSC, reversible: yes, structure 3SSI, whole UniProt chain shown
[1] = pH 7, 82.21 °C, Sodium phosphate 25 mM
[2] = pH 3.2, 53.36 °C, glycine 25 mM

Variant	Tm (pH 3.2, glycine 25 mM) [°C]	change of melting temperature, mutant - wild type (higher = more stable) (pH 3.2, glycine 25 mM) [°C]	unfolding enthalpy (calorimetric) (pH 3.2, glycine 25 mM) [kcal/mol]	ddG of mutation (higher = less stable) [1] [kcal/mol]	unfolding free energy [1] [kcal/mol]	Tm (pH 7, Sodium phosphate 25 mM) [°C]	change of melting temperature, mutant - wild type (higher = more stable) (pH 7, Sodium phosphate 25 mM) [°C]	unfolding enthalpy (calorimetric) (pH 7, Sodium phosphate 25 mM) [kcal/mol]	ddG of mutation (higher = less stable) (pH 9.5, 80.7 °C, glycine 25 mM) [kcal/mol]	unfolding free energy (pH 9.5, 80.7 °C, glycine 25 mM) [kcal/mol]	Tm (pH 9.5, glycine 25 mM) [°C]	change of melting temperature, mutant - wild type (higher = more stable) (pH 9.5, glycine 25 mM) [°C]	unfolding enthalpy (calorimetric) (pH 9.5, glycine 25 mM) [kcal/mol]	ddG of mutation (higher = less stable) [2] [kcal/mol]	unfolding free energy [2] [kcal/mol]
M134I	46.1	-7.3	98.8	1.89	4.14	78.3	-3.9	179	2.29	3.75	75.9	-4.8	175		
M134G						68.6	-13.6	191			66.3	-14.4	187		
M134L				-0.15	6.18	82.5	0.3	182	0.29	5.75	80.2	-0.48	178	-0.77	6.32
M134A	49.3	-4.1	113	2.32	3.71						75.5	-5.18	193	1.35	4.2
M134V	49.1	-4.3	107	1.84	4.19	78.6	-3.6	179	2.22	3.82	76.4	-4.33	184	1.35	4.2
